In patent US20260308269 (published 2026):
Changes are numbered by the printed parent chain. Like-named read-outs stand apart in the source and are kept apart here.

B1: CH3C.35.23.2 (protein)
chain: PCPAPELLGGPSVFLFPPKPKDTLMISRTPEVTCVVVDVSHEDPEVKFNWYVDGVEVHNAKTKPREEQYNSTYRVVSVLTVLHQDWLNGKEYKCKVSNKALPAPIEKTISKAKGQPREPQVYTLPPSRDELTKNQVSLWCLVKGFYPSDIAVEWESYGTEWANYKTTPPVLDSDGSFFLYSKLTVTKEEWQQGFVFSCSVMHEALHNHYTQKSLSLSPGK
B2: 6.5.11.5.42.2 (TV42.2) (protein)
chain: APELLGGPSVFLFPPKPKDTLMISRTPEVTCVVVDVSHEDPEVKFNWYVDGVEVHNAKTKPREEQYNSTYRVVSVLTVLHQDWLNGKEYKCKVSNKALPAPIEKTISKAKGQPREPQVYTLPPSRDELTKNQVSLTCLVKGFYPSDIAVEWFSDGSKETNYKTTPPVLDSDGSFFLYSKLTVDKSRWQQGNLFACEVMHEALHNHYTYKLLSLSPGK
B3: TV35.d1.9 (protein)
chain: B1 chain with L7A, L8A, P102G, A162T, E188S
B4: TV35.d1.10 (protein)
chain: B1 chain with L7A, L8A, P102G, A162V, E188S
B5: CH3C.35.23.4 (protein)
chain: B1 chain with A162S, T186S
B6: 42.8.143 (protein)
chain: B2 chain with S153Y, D154G, G155D, E158L
B7: 42.2.19 (protein)
chain: B2 chain with S153Y, G155D, E158L, Q189P, G190R, N191G, S212G, L213E

Key:
Assay in all cases: SPR
[1] = target: T1, human TfR apical domain (human)
T1 chain: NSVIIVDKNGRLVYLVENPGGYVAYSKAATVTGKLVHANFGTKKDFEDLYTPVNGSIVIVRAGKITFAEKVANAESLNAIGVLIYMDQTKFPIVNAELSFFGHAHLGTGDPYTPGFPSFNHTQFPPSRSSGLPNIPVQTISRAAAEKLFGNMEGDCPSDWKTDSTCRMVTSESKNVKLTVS

[2] = target: T1, human TfR apical domain
[3] = target: T1, human TfR apical domain

Binder | Kd [1] | Kd [2] | Kd [3]
B1 | 0.1 µM |  | 
B2 | 0.65 µM | 0.65 µM | 
B3 | 8 µM |  | 8.4 µM
B4 | 2.5 µM |  | 2.5 µM
B5 | 0.62 µM |  | 
B6 | 0.45 µM |  | 
B7 |  | 0.08 µM | 
